Experimental data: patent US6436636B1, “Methods for identifying pharmacologicals for the treatment of heart failure” (Wake Forest University, priority 1995, dated 2002)

Legend:
Assay in all cases: UV-crosslinking of recombinant p37AUF1 to radiolabeled RNA
Format in all cases: binding
Conditions in all cases: UV irradiation, Rnase A+T1 digestion, SDS-PAGE, autoradiography
rabbit β-globin (Rβ) RNA = system: rabbit β-globin (Rβ) RNA
Excerpt: (§1) FIG. 5 represents an autoradiogram showing UV-crosslinking of purified, recombinant p37AUF1 polypeptide to human β1-AR 3′UTR RNA. Autoradiogram of recombinant p37AUF1 UV-crosslinked to radiolabeled, in vitro transcribed human β1-AR 3′UTR RNA. Lane 1, β1-AR RNA in the absence of competitor RNA. Lanes 2 and 3, β1-AR RNA is the presence of 10-fold and 100-fold molar excess of unlabeled β1-AR RNA. Lane 4, β1-AR RNA in the presence of 100-fold molar excess of rabbit β-globin RNA (Rb). Lane 5, c-fos ARE only. Lane 6, rabbit β-globin RNA only.
(§2) To show AUF1 binds to the human β1-AR 3′UTR, radiolabeled RNA was incubated with purified, recombinant p37AUF1, subjected to UV irradiation, Rnase A+T1 digestion, SDS-PAGE, and autoradiography. Recombinant p37AUF1 polypeptide binds to the β1-AR 3′UTR and to the c-fos ARE but fails to bind to rabbit β-globin (Rβ) RNA (FIG. 5).
(§3) A 0.3M KC1 ribosomal salt wash (RSW) was produced from DDT1-MF2 cells using the method of Brewer and Ross, Methods in Enzyznology 181:202-209 (1990). UV-crosslinking was performed as described in Port et al., J. Biol. Chem. 267:24103-24108 (1992) Briefly, an aliquot of radiolabeled RNA (1-4×10^6 cpm) was added to a mixture containing 20 μl of RSW (˜5×10^6 cell equivalents/μl) from DDT1-MF2 cells, 5 μg of yeast tRNA, 4 mM dithiothreitol, 5 μg heparin, and 65 units of Rnasin™ in a total volume of 50 μl. […]

c-fos ARE = system: c-fos ARE
Excerpt: as §1, §2, §3

human β1-AR 3′UTR RNA = system: human β1-AR 3′UTR RNA
Excerpt: as §1, §2
A 919 bp cDNA fragment corresponding to the β1AR 3′ UTR was synthesized by PCR and subcloned into pcDNA3 (Invitrogen) utilizing the Xho I and Xba I restriction endonuclease sites. The resulting vector was linearized with Xba I, and in vitro transcription was performed as described in Port et al., J. Biol. Chem. 267:24103-24108 (1992). Briefly, radiolabeled RNA was synthesized using T7 DNA-directed RNA polymerase and [α-^32P]UTP (800 Ci/mmol, New England Nuclear) to produce uniformly labeled, 5′-capped RNA. […]

- binding to rabbit β-globin (Rβ) RNA (rabbit β-globin (Rβ) RNA): fails to bind
- binding to c-fos ARE (c-fos ARE): binds
- binding to β1-AR 3′UTR (human β1-AR 3′UTR RNA): binds
B1: p37AUF1: purified, recombinant p37AUF1 polypeptide (His6 fusion expressed in E. coli), A+U-rich element RNA-binding factor (protein)
chain: MSEEQFGGDGAAAAATAAVGGSAGEQEGAMVAATQGAAAAAGSGAGTGGGTASGGTEGGSAESEGAKIDASKNEEDEGKMFIGGLSWDTTKKDLKDYFSKFGEVVDCTLKLDPITGRSRGFGFVLFKESESVDKVMDQKEHKLNGKVIDPKRAKAMKTKEPVKKIFVGGLSPDTPEEKIREYFGGFGEVESIELPMDNKTNKRRGFCFITFKEEEPVKKIMEKKYHNVGLSKCEIKVAMSKEQYQQQQQWGSRGGFAGRARGRGGDQQSGYGKVSRRGGHQNSYKPY
modifications: left off: small tags and cut ends
